Values joined by “and” are separate entries in the source; they are usually repeats but may differ in a detail not shown here. Equal values may be shown once.
How the values were obtained:
[1] = molecular target: biotinylated antigen (biotinylated 16-branched citrullinated peptide); test: magnetic particle chemiluminescence immunoassay; antibody at 10 RU/ml; kit stored at 4 C for 7 days; mean of two
[2] = molecular target: biotinylated antigen (biotinylated 16-branched citrullinated peptide); test: magnetic particle chemiluminescence immunoassay; antibody at 200 RU/ml; kit stored at 37 C for 7 days
[3] = molecular target: biotinylated antigen (biotinylated 16-branched citrullinated peptide); test: magnetic particle chemiluminescence immunoassay; antibody at 80 RU/ml; kit stored at 4 C for 7 days
[4] = molecular target: biotinylated antigen (biotinylated 16-branched citrullinated peptide); test: magnetic particle chemiluminescence immunoassay; antibody at 10 RU/ml; kit stored at 37 C for 7 days
[5] = molecular target: biotinylated antigen (biotinylated 16-branched citrullinated peptide); test: magnetic particle chemiluminescence immunoassay; antibody at 200 RU/ml; kit stored at 4 C for 7 days; mean of two
[6] = molecular target: biotinylated antigen (biotinylated 16-branched citrullinated peptide); test: magnetic particle chemiluminescence immunoassay; antibody at 80 RU/ml; kit stored at 37 C for 7 days; mean of two
[7] = molecular target: biotinylated antigen (biotinylated 16-branched citrullinated peptide); test: magnetic particle chemiluminescence immunoassay; antibody at 200 RU/ml; kit stored at 37 C for 7 days; mean of two
[8] = molecular target: biotinylated antigen (biotinylated 16-branched citrullinated peptide); test: magnetic particle chemiluminescence immunoassay; antibody at 80 RU/ml; kit stored at 37 C for 7 days
[9] = molecular target: biotinylated antigen (biotinylated 16-branched citrullinated peptide); test: magnetic particle chemiluminescence immunoassay, antigen on streptavidin particles, AP anti-human IgG detection; antibody at 10 RU/ml; kit stored at 4 C for 7 days
[10] = molecular target: biotinylated antigen (biotinylated 16-branched citrullinated peptide); test: magnetic particle chemiluminescence immunoassay; antibody at 200 RU/ml; kit stored at 4 C for 7 days
[11] = molecular target: biotinylated antigen (biotinylated 16-branched citrullinated peptide); test: magnetic particle chemiluminescence immunoassay; antibody at 10 RU/ml; kit stored at 4 C for 7 days
[12] = molecular target: biotinylated antigen (biotinylated 16-branched citrullinated peptide); test: magnetic particle chemiluminescence immunoassay; antibody at 80 RU/ml; kit stored at 4 C for 7 days; mean of two
[13] = molecular target: biotinylated antigen (biotinylated 16-branched citrullinated peptide); test: magnetic particle chemiluminescence immunoassay; antibody at 10 RU/ml; kit stored at 37 C for 7 days; mean of two

For “anti-citrullinated peptide antibody (quality control material / calibrator of the kit)”, the RLU (AVER) [1] was 129000 RLU, the RLU [2] was 2.32e+06 RLU and 2.44e+06 RLU and the RLU [3] was 846000 RLU and 932000 RLU. It also gave an RLU [4] of 124000 RLU, an RLU (AVER) [5] of 2.4e+06 RLU and an RLU (AVER) [6] of 902000 RLU. For the same substance, the RLU (AVER) [7] was 2.38e+06 RLU, the RLU [8] was 886000 RLU and 917000 RLU and the RLU [9] was 125000 RLU. For the same substance, the RLU [10] was 2.38e+06 RLU and 2.42e+06 RLU, the RLU [11] was 132000 RLU and the RLU (AVER) [12] was 889000 RLU. It also gave an RLU (AVER) [13] of 124000 RLU.
